B1: Protein GRIP (Arabidopsis thaliana (Mouse-ear cress)), Q8S2T0 (parent)
chain: MSEDKESDVVGEEEESHVIKEDKELNDASNETLTENGDQLLQMIAELRLENDFLRSQFEGLKDEVAQGRSLQKAEQVEADSAQLKQLQEQVASLSREIDVEKQTRVAAEQALEHLREAYSEADAKSQEYSSKFSQVEQKLDQEIKERDEKYADLDAKFTRLHKRAKQRIQEIQKEKDDLDARFREVNETAERASSQHSSMQQELERTRQQANEALKAMDAERQQLRSANNKLRDTIEELRGSLQPKENKIETLQQSLLDKDQILEDLKKQLQAVEERKQIAVTELSAKHQKNLEGLEAQVVDALSERDKAAETISSLQVLLAEKESKIAEMEAAATGEAARLRAAAETLKGELAHLKSENEKEKETWEASCDALKSKLEIAESNYLQAEIEVAKMRSQLGSEMSMQTQILSTKDAELKGAREEINRLQSEFSSYKIRAHALLQKKDMELAAAKDSEQIKSLEEALKEAEKEVYLVSAERDRAQQDLQSALASLEKELEERAGALKDASEQIKSLEVKLDSTVARNQAEKQAWEEDLRVLEETWRRRCEALTAQNEASPAEGIEKELENAKLRNKRMKEEHESVRELADRLIEEKDREISRLVDEMTNLRKSMESKPVWNKSPSQVHHYGNNNTESQQQDVSNLSTSAAEHQILILARQQAQREEELAQTQRHILALQEEIEELERENRLHSQQEAVLKTELREMERKQKREGVDMTYLKNVILKLLETGEVEALLPVVGMLLQFSPEEIQKCQQAYHSSTTAATTTEATPSPASEGSGLSVFSRFSFS
partner: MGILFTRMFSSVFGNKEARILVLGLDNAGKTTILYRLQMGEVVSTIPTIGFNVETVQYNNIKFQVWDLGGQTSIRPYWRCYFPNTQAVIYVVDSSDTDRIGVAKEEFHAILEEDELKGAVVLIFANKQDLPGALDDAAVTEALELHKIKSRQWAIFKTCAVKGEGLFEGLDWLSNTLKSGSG
B2: ADP-ribosylation factor 3 (Arabidopsis thaliana (Mouse-ear cress)), P40940 (parent)
chain: B1 partner
partner: B1 chain

Variants of: B1
Conditions: with arf3_arath ARF3, P40940

effect of a mutation on the interaction | Variant
decreasing interaction | Y717A

Variants of: B2
Conditions: with grip_arath GRIP, Q8S2T0

effect of a mutation on the interaction | Variant
disrupting interaction | MGILFTRMFSSVFGNKEARILVLGLDNAGKNTILYRLQMGEVVSTIPTIGFNVETVQYNNIKFQVWDLGGQTSIRPYWRCYFPNTQAVIYVVDSSDTDRIGVAKEEFHAILEEDELKGAVVLIFANKQDLPGALDDAAVTEALELHKIKSRQWAIFKTCAVKGEGLFEGLDWLSNTLKSGSG [T31N]

Variants of: B2
Conditions: with grip_arath GRIP

effect of a mutation on the interaction | Variant
causing an interaction | MGILFTRMFSSVFGNKEARILVLGLDNAGKTTILYRLQMGEVVSTIPTIGFNVETVQYNNIKFQVWDLGGLTSIRPYWRCYFPNTQAVIYVVDSSDTDRIGVAKEEFHAILEEDELKGAVVLIFANKQDLPGALDDAAVTEALELHKIKSRQWAIFKTCAVKGEGLFEGLDWLSNTLKSGSG [Q71L]

Reference: IntAct's records for PubMed 16236155
